Consider 1 molecule from publication PMC6363440 (The Journal of Cell Biology, 2019).

This assay has as its target Flag-53BP1 (human, UniProt Q12888 1-1972). The assay can be described thus: pull-down.

Chain of Flag-53BP1 (Q12888 whole entry): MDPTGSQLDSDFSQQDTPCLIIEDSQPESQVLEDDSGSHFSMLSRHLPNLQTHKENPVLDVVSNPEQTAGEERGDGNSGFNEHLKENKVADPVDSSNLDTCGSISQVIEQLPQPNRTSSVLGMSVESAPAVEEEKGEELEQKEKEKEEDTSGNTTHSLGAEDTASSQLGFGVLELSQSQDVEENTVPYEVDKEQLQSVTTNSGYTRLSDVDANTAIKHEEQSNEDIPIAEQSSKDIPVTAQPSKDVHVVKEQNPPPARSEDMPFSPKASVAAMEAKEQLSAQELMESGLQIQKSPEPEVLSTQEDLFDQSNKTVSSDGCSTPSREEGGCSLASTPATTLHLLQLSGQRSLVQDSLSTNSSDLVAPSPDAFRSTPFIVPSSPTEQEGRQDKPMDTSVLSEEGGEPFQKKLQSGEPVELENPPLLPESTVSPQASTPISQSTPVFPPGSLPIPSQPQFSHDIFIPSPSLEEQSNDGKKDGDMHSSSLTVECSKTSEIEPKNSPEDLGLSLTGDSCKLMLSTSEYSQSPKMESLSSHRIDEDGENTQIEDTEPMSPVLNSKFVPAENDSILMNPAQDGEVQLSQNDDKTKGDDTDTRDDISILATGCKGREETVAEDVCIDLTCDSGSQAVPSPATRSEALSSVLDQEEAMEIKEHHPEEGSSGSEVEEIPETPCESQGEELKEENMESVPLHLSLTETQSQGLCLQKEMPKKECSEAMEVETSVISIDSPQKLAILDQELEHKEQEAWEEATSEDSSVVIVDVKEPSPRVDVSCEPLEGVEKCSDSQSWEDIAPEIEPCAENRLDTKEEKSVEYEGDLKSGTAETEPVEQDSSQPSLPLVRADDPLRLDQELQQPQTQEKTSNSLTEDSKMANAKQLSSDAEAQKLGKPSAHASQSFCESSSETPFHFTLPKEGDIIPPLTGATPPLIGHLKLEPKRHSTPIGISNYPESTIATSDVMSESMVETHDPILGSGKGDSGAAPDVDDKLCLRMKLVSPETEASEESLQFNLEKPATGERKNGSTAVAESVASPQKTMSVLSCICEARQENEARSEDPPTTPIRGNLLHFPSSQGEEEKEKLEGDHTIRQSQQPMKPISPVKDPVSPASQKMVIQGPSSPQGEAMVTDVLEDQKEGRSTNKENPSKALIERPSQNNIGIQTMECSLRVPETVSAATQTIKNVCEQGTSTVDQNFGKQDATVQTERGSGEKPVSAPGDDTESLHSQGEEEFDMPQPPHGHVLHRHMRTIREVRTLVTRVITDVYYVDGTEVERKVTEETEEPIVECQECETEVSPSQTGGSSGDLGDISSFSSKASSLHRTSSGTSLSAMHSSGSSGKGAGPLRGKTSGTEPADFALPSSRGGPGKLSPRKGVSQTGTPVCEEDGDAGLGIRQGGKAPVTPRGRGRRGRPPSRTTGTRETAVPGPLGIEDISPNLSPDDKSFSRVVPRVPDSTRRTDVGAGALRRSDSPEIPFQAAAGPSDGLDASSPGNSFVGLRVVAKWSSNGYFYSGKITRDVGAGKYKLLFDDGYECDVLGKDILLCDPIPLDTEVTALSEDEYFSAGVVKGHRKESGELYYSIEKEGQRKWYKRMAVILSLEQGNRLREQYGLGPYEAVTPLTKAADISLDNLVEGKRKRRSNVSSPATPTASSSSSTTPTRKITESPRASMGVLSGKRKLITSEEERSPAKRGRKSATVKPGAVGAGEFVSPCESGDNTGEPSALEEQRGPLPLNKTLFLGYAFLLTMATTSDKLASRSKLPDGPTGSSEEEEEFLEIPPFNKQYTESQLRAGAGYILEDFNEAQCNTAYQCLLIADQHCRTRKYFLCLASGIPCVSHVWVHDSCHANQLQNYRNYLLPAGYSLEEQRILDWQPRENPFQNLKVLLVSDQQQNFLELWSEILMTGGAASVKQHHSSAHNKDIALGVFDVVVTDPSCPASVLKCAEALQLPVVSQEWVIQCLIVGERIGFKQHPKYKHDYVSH

B1: GST-TPX2 (natural protein)
chain: MSQVKSSYSYDAPSDFINFSSLDDEGDTQNIDSWFEEKANLENKLLGKNGTGGLFQGKTPLRKANLQQAIVTPLKPVDNTYYKEAEKENLVEQSIPSNACSSLEVEAAISRKTPAQPQRRSLRLSAQKDLEQKEKHHVKMKAKRCATPVIIDEILPSKKMKVSNNKKKPEEEGSAHQDTAEKNASSPEKAKGRHTVPCMPPAKQKFLKSTEEQELEKSMKMQQEVVEMRKKNEEFKKLALAGIGQPVKKSVSQVTKSVDFHFRTDERIKQHPKNQEEYKEVNFTSELRKHPSSPARVTKGCTIVKPFNLSQGKKRTFDETVSTYVPLAQQVEDFHKRTPNRYHLRSKKDDINLLPSKSSVTKICRDPQTPVLQTKHRARAVTCKSTAELEAEELEKLQQYKFKARELDPRILEGGPILPKKPPVKPPTEPIGFDLEIEKRIQERESKKKTEDEHFEFHSRPCPTKILEDVVGVPEKKVLPITVPKSPAFALKNRIRMPTKEDEEEDEPVVIKAQPVPHYGVPFKPQIPEARTVEICPFSFDSRDKERQLQKEKKIKELQKGEVPKFKALPLPHFDTINLPEKKVKNVTQIEPFCLETDRRGALKAQTWKHQLEEELRQQKEAACFKARPNTVISQEPFVPKKEKKSVAEGLSGSLVQEPFQLATEKRAKERQELEKRMAEVEAQKAQQLEEARLQEEEQKKEELARLRRELVHKANPIRKYQGLEIKSSDQPLTVPVSPKFSTRFHC
B1: the binding result is reported as “binds”.
